# From PMC7877763 (2021)
# Legend:
# [1] = target: GPR-foldon (foldon stabilized collagen model peptide containing a (GPP)5GPR(GPP)6 collagen sequence) (biotinylated (site not stated) for the BLI experiment); assay: BLI
# [2] = target: full length pepsinized type I collagen from mouse tail tendon (mouse, UniProt P11087 152-1207; Q01149 86-1125); assay: SPR
# Sequence of full length pepsinized type I collagen from mouse tail tendon (P11087 152-1207, chain 1 of 2): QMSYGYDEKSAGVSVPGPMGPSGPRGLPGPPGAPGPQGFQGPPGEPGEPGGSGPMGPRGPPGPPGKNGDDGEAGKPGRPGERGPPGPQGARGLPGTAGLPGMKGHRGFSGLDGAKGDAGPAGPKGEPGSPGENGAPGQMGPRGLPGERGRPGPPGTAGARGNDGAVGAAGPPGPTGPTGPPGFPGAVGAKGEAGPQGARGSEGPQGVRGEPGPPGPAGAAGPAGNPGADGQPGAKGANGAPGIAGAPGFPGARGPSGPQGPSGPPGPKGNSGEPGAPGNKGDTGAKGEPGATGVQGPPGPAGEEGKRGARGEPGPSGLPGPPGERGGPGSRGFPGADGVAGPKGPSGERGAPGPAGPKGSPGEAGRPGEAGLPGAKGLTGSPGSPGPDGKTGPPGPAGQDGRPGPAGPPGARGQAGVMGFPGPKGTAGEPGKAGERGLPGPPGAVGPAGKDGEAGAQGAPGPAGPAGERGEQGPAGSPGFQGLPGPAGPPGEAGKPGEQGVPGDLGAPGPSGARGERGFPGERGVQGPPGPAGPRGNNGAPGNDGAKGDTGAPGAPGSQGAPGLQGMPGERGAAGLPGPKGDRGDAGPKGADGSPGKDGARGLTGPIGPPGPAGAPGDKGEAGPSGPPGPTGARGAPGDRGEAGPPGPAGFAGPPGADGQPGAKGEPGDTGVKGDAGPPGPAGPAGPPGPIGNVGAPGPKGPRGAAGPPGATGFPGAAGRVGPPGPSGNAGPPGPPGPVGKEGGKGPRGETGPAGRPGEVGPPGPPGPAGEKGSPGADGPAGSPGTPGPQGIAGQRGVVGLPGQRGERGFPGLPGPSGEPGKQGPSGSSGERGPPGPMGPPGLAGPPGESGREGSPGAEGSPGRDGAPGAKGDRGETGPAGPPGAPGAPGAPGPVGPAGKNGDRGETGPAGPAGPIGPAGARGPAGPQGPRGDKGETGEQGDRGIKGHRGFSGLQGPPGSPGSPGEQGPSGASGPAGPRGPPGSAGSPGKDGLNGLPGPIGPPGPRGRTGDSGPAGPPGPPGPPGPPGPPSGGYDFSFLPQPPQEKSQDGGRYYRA
# Sequence of full length pepsinized type I collagen from mouse tail tendon (Q01149 86-1125, chain 2 of 2): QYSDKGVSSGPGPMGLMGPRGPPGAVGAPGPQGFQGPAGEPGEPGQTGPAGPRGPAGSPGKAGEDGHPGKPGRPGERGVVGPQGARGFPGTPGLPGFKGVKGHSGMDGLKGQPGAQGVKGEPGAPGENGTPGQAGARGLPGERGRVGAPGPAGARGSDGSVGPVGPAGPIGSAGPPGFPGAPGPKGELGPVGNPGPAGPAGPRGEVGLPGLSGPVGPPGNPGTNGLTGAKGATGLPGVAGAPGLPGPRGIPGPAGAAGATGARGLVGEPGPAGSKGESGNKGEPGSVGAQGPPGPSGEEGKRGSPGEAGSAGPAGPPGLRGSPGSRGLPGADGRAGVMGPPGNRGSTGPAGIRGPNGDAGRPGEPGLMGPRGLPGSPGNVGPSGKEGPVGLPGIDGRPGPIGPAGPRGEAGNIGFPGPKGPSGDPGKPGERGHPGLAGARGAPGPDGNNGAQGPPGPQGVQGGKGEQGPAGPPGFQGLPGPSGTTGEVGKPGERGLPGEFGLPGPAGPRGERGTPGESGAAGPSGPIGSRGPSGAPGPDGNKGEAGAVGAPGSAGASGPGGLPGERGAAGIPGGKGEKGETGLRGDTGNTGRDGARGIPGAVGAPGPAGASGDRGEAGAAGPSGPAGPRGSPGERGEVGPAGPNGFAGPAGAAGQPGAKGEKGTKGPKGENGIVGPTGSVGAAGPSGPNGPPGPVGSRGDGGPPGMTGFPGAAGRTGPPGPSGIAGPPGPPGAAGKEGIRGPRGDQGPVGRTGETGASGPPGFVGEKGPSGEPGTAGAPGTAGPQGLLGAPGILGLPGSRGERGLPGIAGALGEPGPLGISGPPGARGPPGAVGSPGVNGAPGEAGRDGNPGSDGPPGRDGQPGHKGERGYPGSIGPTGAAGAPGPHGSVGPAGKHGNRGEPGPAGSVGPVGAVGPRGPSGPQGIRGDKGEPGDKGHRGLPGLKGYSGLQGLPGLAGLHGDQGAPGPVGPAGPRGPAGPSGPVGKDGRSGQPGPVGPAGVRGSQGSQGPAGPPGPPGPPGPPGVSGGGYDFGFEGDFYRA
Binder,koff [1],koff [2]
recombinant canine HSP47-R222S (natural protein) LSPKAATLAERSAGLAFSLYQAMAKDQAVENILLSPVVVASSLGLVSLGGKATTASQAKAVLSAEQLRDEEVHAGLGELLRSLSNSTARNVTWKLGSRLYGPSSVSFAEDFVRSSKQHYNCEHSKINFRDKRSALQSINEWAAQTTDGKLPEVTKDVERTDGALLVNAMFFKPHWDEKFHHKMVDNSGFMVTRSYTVGVTMMHRTGLYNYYDDEKEKLQIVEMPLAHKLSSLIILMPHHVEPLERLEKLLTKEQLKIWMGKMQKKAVAISLPKGVVEVTHDLQKHLAGLGLTEAIDKNKADLSRMSGKKDLYLASVFHATAFEWDTEGNPFDQDIYGREELRSPKLFYADHPFIFLVRDTQSGSLLFIGRLVRPKGDKMRDEL,0.0186 s⁻¹,0.003 s⁻¹
recombinant wild-type canine HSP47 (natural protein) LSPKAATLAERSAGLAFSLYQAMAKDQAVENILLSPVVVASSLGLVSLGGKATTASQAKAVLSAEQLRDEEVHAGLGELLRSLSNSTARNVTWKLGSRLYGPSSVSFAEDFVRSSKQHYNCEHSKINFRDKRSALQSINEWAAQTTDGKLPEVTKDVERTDGALLVNAMFFKPHWDEKFHHKMVDNRGFMVTRSYTVGVTMMHRTGLYNYYDDEKEKLQIVEMPLAHKLSSLIILMPHHVEPLERLEKLLTKEQLKIWMGKMQKKAVAISLPKGVVEVTHDLQKHLAGLGLTEAIDKNKADLSRMSGKKDLYLASVFHATAFEWDTEGNPFDQDIYGREELRSPKLFYADHPFIFLVRDTQSGSLLFIGRLVRPKGDKMRDEL,0.0185 s⁻¹,0.011 s⁻¹
